Seven molecules from paper PMC6582607, “Development of a novel ssDNA aptamer targeting neutrophil gelatinase-associated lipocalin and its application in clinical trials” can be followed below.

The target in data set [1] is T1, NGAL (neutrophil gelatinase-associated lipocalin) (UniProt P80188 21-198). The data set can be described thus: magnetic bead pull-down, qPCR; binding buffer (composition and pH not in material), room temperature, 1 h, NGAL-coated magnetic beads (about 0.20 ug NGAL per uL beads).
T1 sequence (P80188 21-198): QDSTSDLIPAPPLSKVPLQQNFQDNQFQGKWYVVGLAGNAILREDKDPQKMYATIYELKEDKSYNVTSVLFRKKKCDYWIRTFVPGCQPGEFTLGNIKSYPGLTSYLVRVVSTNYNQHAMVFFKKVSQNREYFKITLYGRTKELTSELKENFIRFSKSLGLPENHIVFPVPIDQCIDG
For data set [2], the target named is T1, NGAL (neutrophil gelatinase-associated …). The data set can be described thus: magnetic bead pull-down, qPCR; 20 nM; binding buffer (composition and pH not in material), room temperature, 1 h, NGAL-coated magnetic beads (about 0.20 ug NGAL per uL beads).

B1: NA42 (ssDNA)
DNA: AGCAGCACAGAGGTCAGATGCCGTGCGGATGTACAGGGACTTGGATAGTTTCTGACCTATGCGTGCTACCGTGAA
For B1, binding in data set [1] was characterised by a dissociation constant (Kd) of 66.5 nM.

B2: NA40 (ssDNA)
DNA: AGCAGCACAGAGGTCAGATGGCGCTGGATAGCAAGATCACGTTATCATCGTAAACCCTATGCGTGCTACCGTGAA
With B2, in data set [2], the binding signal is > 4 dCt (cycles vs bare beads).

B3: NA39 (ssDNA)
DNA: AGCAGCACAGAGGTCAGATGGCGCTGGATAGCAAGATCACGTTATCATCGTAAACCCTATGCGTGCTACCGTGAA
B3: the binding signal in data set [2] is > 4 dCt (cycles vs bare beads).

B4: NA27 (ssDNA)
DNA: AGCAGCACAGAGGTCAGATGGCGCTGGATAGCAAGATCACGTTATCGTCGTAAACCCTATGCGTGCTACCGTGAA
As for B4, in data set [2], the binding signal is > 4 dCt (cycles vs bare beads).

B5: NA53 (ssDNA)
DNA: AGCAGCACAGAGGTCAGATGGCGCTGGATAGCAAGATCACGTTATCATCGTAAACCCTATGCGTGCTACCGTGAA
B5 displayed a Kd in data set [1] of 32.5 nM.

B6: NA36 (ssDNA)
DNA: AGCAGCACAGAGGTCAGATGCCCATATGCTACTTTGCACACATCCTGGATAGGCTCCTATGCGTGCTACCGTGAA
B6: the affinity in data set [1], expressed as Kd, was 43.6 nM.

B7: NA37 (ssDNA)
DNA: AGCAGCACAGAGGTCAGATGCCCATATGCTACTTTGCACACATCCTGGATAGGCTCCTATGCGTGCTACCGTGAA
Consider B7, for which the binding signal in data set [2] was > 4 dCt (cycles vs bare beads).
